From patent US20220403048A1, “BINDING MOLECULES TO ARGINASE II [ARG2]” (Cancer Research Technology Limited, priority 2019, published 2022)

T1: ARG2 from CCM of LNCaP, A673 and A2780-Cis (Homo sapiens, UniProt P78540)
T1 construct: ARG2 is released into the CCM from LNCaP, A673 and A2780-Cis cell lines; endogenous in cells; host or cells: cell conditioned medium of cancer cell lines (LNCaP, A673, A2780-Cis and others)
T1 sequence (P78540 23-354): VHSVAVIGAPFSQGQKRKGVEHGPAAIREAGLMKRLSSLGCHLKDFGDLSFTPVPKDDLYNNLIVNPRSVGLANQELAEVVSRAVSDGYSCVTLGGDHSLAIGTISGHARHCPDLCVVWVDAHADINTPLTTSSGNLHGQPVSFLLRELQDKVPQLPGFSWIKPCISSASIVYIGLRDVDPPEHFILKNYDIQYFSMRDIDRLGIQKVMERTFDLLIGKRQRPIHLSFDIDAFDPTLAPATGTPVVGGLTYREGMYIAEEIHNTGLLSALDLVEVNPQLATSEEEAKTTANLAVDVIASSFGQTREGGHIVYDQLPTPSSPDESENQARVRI

T2: human ARG2 (Homo sapiens, UniProt P78540)
T2 construct: made in house
T2 sequence (P78540 with tags, fused parts or gaps): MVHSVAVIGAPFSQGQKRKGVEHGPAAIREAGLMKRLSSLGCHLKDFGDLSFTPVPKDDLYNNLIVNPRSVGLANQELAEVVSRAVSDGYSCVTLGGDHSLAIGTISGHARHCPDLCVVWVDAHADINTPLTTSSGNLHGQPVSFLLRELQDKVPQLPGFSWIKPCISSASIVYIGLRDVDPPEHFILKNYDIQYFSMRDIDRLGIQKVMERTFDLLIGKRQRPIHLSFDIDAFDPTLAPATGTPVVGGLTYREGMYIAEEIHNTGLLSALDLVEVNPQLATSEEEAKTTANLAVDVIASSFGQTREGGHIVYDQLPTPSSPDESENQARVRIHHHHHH


Columns and labels:
[1] = biological target: T1, ARG2 from CCM of LNCaP, A673 and A2780-Cis; assay: ELISA binding to ARG2 from CCM of cancer cell lines; conditions: biotinylated IgG at 10 μg/ml as detection antibody, FIG. 18
Description: In this experiment the presence of ARG2 in CCM samples was validated using commercial ARG2 ELISA kit (Cloud-Clone Corp., cat. SED796Hu). Additionally, the protocol was modified to include 1st generation IgG C0021061 and 2nd generation IgG C0021158 as detection antibodies to confirm binding of ARG2 IgG's to ARG2 expressed from cancer cell lines (FIG. 18).
The commercial kit is a 96-well plate pre-coated with anti-ARG2, which uses sandwich ELISA to quantify ARG2 in samples. Standards, biotinylated detection antibody, detection, substrate, and stop reagents are all provided in the kit. […] 100 μl of diluted CCM/media control was used for each well of kit and ELISA was performed following manufacturer's protocol. Each sample was run in duplicate. In parallel, CCM/media control samples were also included to test for binding of C0021061 and C0021158 to ARG2 in CCM samples. […] At the end of the assay, absorbance at 450 nm was read out on PheraStar (BMG). The absorbance values of standards were used to make standard curve and was used to interpolate ARG2 levels in CCM samples (where PAD detection antibody supplied with the kit was used). Similarly, absorbance reads from wells that received C0021061 and C0021158 were used to […] and 2nd generation ARG2 IgGs (C0021061 and C0021158 respectively) bind to ARG2 in CCM samples (FIG. 18).

[2] = biological target: T2, human ARG2; assay: X-ray co-crystal structures of ARG2-Fab complexes, buried surface area of epitope residues; conditions: total of interface residues
Experimental: The construct used for crystal trials was ARG2 (23-354) containing a C-terminal Gly3 linker and His10-tag (ARG2+C0020187, SEQ ID NO: 355: huARG2-His10) or a simple C-terminal His6-tag (ARG2+C0021181 and ARG2+C0021158, SEQ ID NO: 357: huARG2-His6). Crystals suitable for structure determination were obtained using the sitting drop methodology. For ARG2+C0020187, 0.2 μl of complex solution (2.0 mg/ml, ARG2:Fab=3:1, purified by gel filtration) were mixed with 0.1 μl of crystallisation solution containing 2 M (NH4)2SO4. Round, disc-shaped crystals (60×60×20 μm) appeared after 2 days. For ARG2+C0021181, 0.5 μl of complex solution (6.3 mg/ml) were mixed with 0.5 μl of a crystallisation solution containing 100 mM MMT (malic acid:MES:tris=1:2:2) pH 5.0, 20% glycerol, 10% PEG4000, 15 mM NaNO3, 15 mM Na2HPO4, 15 mM (NH4)2SO4. Hexagonal disc-shaped crystals (100×100×20 μm) appeared after 2 days and reached their final size after a week. For ARG2+C0021158, 0.25 μl of complex solution (7.0 mg/ml, containing 20% diluted microseeds of an ARG2+C0021181 crystal) were mixed with 0.25 μl of a crystallisation solution containing 2 M (NH4)2SO4. Crystals of irregular shape (60×60×60 μm) appeared after 2 days. For the ARG2+C0020187 and ARG2+C0021158 crystals, 3 M (NH4)2SO4 and 5% glycerol were added for cryo-protection, after which the crystals were cryo-cooled by plunging them into liquid N2. Data sets were collected at DLS, beamline i04-1 (ARG2+C0020187) or BESSY II, HZB, beamline MX-14-1 (ARG2+C0021181 and ARG2+C0021158). The crystals of ARG2+C0020187 diffracted up to 3.25 Å in space group P 65 2 2 with unit cell parameters a=b=138 Å, c=551 Å.
The structures were solved by molecular replacement using Phaser in the CCP4 program suite using the reported structure of ARG2 (PDB-ID 4HZE) and previously solved high-resolution structures of the individual Fabs in the molecular replacement search. For ARG2+C0020187 the asymmetric unit contained three copies each of ARG2 and the Fab, respectively, with the CL and CH domains being present in different orientations, one of pair which was poorly defined in the electron density. For ARG2+C0021181 and ARG2+C0021158 the asymmetric units contained one copy of ARG2 and one copy of the Fab, however for ARG2+C0021181 only the VL and VH domains of the Fab were well defined, with CL and CH domains most likely being present in two orientations (reflected by the increased B factor and overall worse electron density). Automated and manual refinement was then performed by alternating between using REFMAC5 (with twin- and TLS refinement turned on towards finalising the structures for ARG2+C0021181 and ARG2+C0021158) and COOT, respectively. […]

Row | binding to ARG2 from CCM of LNCaP, A673 and A2780-Cis (ELISA) [1] | % buried ([2]; C0021158 complex) | ASA (solvent accessible surface area) ([2]; C0021158 complex) | BSA (buried surface area) ([2]; C0021158 complex) | % buried ([2]; C0021181 complex) | Molecule
1 | binding | 50% | 2012.6 Å^2 | 1000.3 Å^2 |  | C0021158: anti-ARG2 antibody, second generation lead, VH SEQ ID NO: 272, VL SEQ ID NO: 277 (antibody, listed as Homo sapiens, V domains shown, C0021158) VH: EVQLLESGGGLVQPGGSLRLSCAASGFTFRYEVAAWVRQAPGKGLEWVSAISGPIPKGYYADSVKGRFTISRDNSKNTLYLQMNSLRAEDTAVYYCARLRADLGLYMDLWGRGTLVTVPS VL: QSVLTQPPSVSAAPGQKVTISCSGSSSNIGNHYVSWYQQLPGTAPKLLIYDNSERTAGVPDRFSGSKSGTSATLGITGLQTGDEADYYCGTWDELTSNLVFGGGTKLTVL
2 |  |  |  |  | 50% | C0021181: anti-ARG2 antibody, VH SEQ ID NO: 342, VL SEQ ID NO: 347 (antibody, listed as Homo sapiens, V domains shown, C0021181) VH: EVQLLESGGGLVRPGGSLRLSCAASEFTFRYDYHVWVRQAPGKGLEWVSAISGSGGSTYYADSVKSRFTISRDNSKNTLYLQMNSLRAEDTAVYYCARLRADLGLYMDLWGRGTLVTVSS VL: QSVLTQPPSVSAAPGQKVAVSCSGSSSNIGSHYVSWYQQLPGTAPKLLIYDNSERTSGIPDRFSGSKSGTSATLGITGLQTGDEADYYCGTWDELTSNLVFGGGTRLTVL
3 | binding |  |  |  |  | C0021061: anti-ARG2 antibody, first generation lead, VH SEQ ID NO: 62, VL SEQ ID NO: 67 (antibody, listed as Homo sapiens, V domains shown, C0021061) VH: EVQLLESGGGLVQPGGSLRLSCAASGFTFSSYAMSWVRQAPGKGLEWVSAKPTDAGSTYYADSVKGRFTISRDNSKNTLYLQMNSLRAEDTAVYYCARLRADLGLYMDLWGRGTLVTVSS VL: QSVLTQPPSVSAAPGQKVTISCSGSSSNIGNHYVSWYQQLPGTAPKLLIYNTVYPKSGIPDRFSGSKSGTSATLGITGLQTGDEADYYCGTWDSSLSALVFGGGTKLTVL
